Results taken from the supplement of paper PMC10567573.

B1: CDC34 (parent)
chain: GGYFKARLKFPIDYPYSPPAFRFL

Variants of: B1
Experiment: protein stability index of a GFP-peptide fusion (GPS, HEK-293T) (PSI 1-6); higher = more stable
Conditions: c terminus: a fixed tail appended
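Further: lentivirally expressed fusions sorted by FACS into six bins by GFP to DsRed ratio, PSI derived from sequencing read proportions per bin multiplied by bin number.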

| Variant | protein stability index |
| --- | --- |
| GGYFKMRLKFPIDYPYSPPAFRFL [A6M] | 3.74 |
| GGYFKNRLKFPIDYPYSPPAFRFL [A6N] | 3.51 |
| GGYFKPRLKFPIDYPYSPPAFRFL [A6P] | 2.13 |
| GGYFKQRLKFPIDYPYSPPAFRFL [A6Q] | 1.71 |
| GGYFKRRLKFPIDYPYSPPAFRFL [A6R] | 3.77 |
| GGYFKSRLKFPIDYPYSPPAFRFL [A6S] | 2.47 |
| GGYFKTRLKFPIDYPYSPPAFRFL [A6T] | 2.76 |
| GGYFKVRLKFPIDYPYSPPAFRFL [A6V] | 2.15 |
| GGYFKWRLKFPIDYPYSPPAFRFL [A6W] | 3.16 |
| GGYFKYRLKFPIDYPYSPPAFRFL [A6Y] | 3.56 |
| GGYFKAALKFPIDYPYSPPAFRFL [R7A] | 1.8 |
| GGYFKACLKFPIDYPYSPPAFRFL [R7C] | 2.9 |
| GGYFKADLKFPIDYPYSPPAFRFL [R7D] | 1.96 |
| GGYFKAELKFPIDYPYSPPAFRFL [R7E] | 2.77 |
| GGYFKAGLKFPIDYPYSPPAFRFL [R7G] | 2.45 |
| GGYFKAHLKFPIDYPYSPPAFRFL [R7H] | 3.7 |
| GGYFKAILKFPIDYPYSPPAFRFL [R7I] | 2.78 |
| GGYFKAKLKFPIDYPYSPPAFRFL [R7K] | 3.83 |
| GGYFKALLKFPIDYPYSPPAFRFL [R7L] | 2.38 |
| GGYFKAMLKFPIDYPYSPPAFRFL [R7M] | 2.51 |
| GGYFKANLKFPIDYPYSPPAFRFL [R7N] | 2.57 |
| GGYFKAQLKFPIDYPYSPPAFRFL [R7Q] | 1.72 |
| GGYFKASLKFPIDYPYSPPAFRFL [R7S] | 2.3 |
| GGYFKAVLKFPIDYPYSPPAFRFL [R7V] | 3.25 |

| Variant | protein stability index |
| --- | --- |
| GGYFKAWLKFPIDYPYSPPAFRFL [R7W] | 3.18 |
| GGYFKARAKFPIDYPYSPPAFRFL [L8A] | 2.66 |
| GGYFKARCKFPIDYPYSPPAFRFL [L8C] | 2.65 |
| GGYFKARDKFPIDYPYSPPAFRFL [L8D] | 2.24 |
| GGYFKAREKFPIDYPYSPPAFRFL [L8E] | 2.3 |
| GGYFKARFKFPIDYPYSPPAFRFL [L8F] | 3.29 |
| GGYFKARGKFPIDYPYSPPAFRFL [L8G] | 3.75 |
| GGYFKARHKFPIDYPYSPPAFRFL [L8H] | 2.54 |
| GGYFKARIKFPIDYPYSPPAFRFL [L8I] | 3.42 |
| GGYFKARKKFPIDYPYSPPAFRFL [L8K] | 2.48 |
| GGYFKARMKFPIDYPYSPPAFRFL [L8M] | 3.8 |
| GGYFKARPKFPIDYPYSPPAFRFL [L8P] | 2.19 |
| GGYFKARQKFPIDYPYSPPAFRFL [L8Q] | 2.35 |
| GGYFKARRKFPIDYPYSPPAFRFL [L8R] | 1.25 |
| GGYFKARSKFPIDYPYSPPAFRFL [L8S] | 2.89 |
| GGYFKARVKFPIDYPYSPPAFRFL [L8V] | 2.53 |
| GGYFKARWKFPIDYPYSPPAFRFL [L8W] | 2.65 |
| GGYFKARYKFPIDYPYSPPAFRFL [L8Y] | 1.53 |
| GGYFKARLAFPIDYPYSPPAFRFL [K9A] | 2.74 |
| GGYFKARLDFPIDYPYSPPAFRFL [K9D] | 2.43 |
| GGYFKARLEFPIDYPYSPPAFRFL [K9E] | 3.56 |
| GGYFKARLFFPIDYPYSPPAFRFL [K9F] | 3.11 |
| GGYFKARLGFPIDYPYSPPAFRFL [K9G] | 2.29 |
| GGYFKARLHFPIDYPYSPPAFRFL [K9H] | 3.05 |

| Variant | protein stability index |
| --- | --- |
| GGYFKARLIFPIDYPYSPPAFRFL [K9I] | 3.15 |
| GGYFKARLLFPIDYPYSPPAFRFL [K9L] | 3.67 |
| GGYFKARLMFPIDYPYSPPAFRFL [K9M] | 1.82 |
| GGYFKARLNFPIDYPYSPPAFRFL [K9N] | 2.39 |
| GGYFKARLPFPIDYPYSPPAFRFL [K9P] | 2.57 |
| GGYFKARLQFPIDYPYSPPAFRFL [K9Q] | 2.55 |
| GGYFKARLRFPIDYPYSPPAFRFL [K9R] | 3.6 |
| GGYFKARLSFPIDYPYSPPAFRFL [K9S] | 3.19 |
| GGYFKARLTFPIDYPYSPPAFRFL [K9T] | 2.11 |
| GGYFKARLWFPIDYPYSPPAFRFL [K9W] | 2.66 |
| GGYFKARLYFPIDYPYSPPAFRFL [K9Y] | 3.41 |
| GGYFKARLKCPIDYPYSPPAFRFL [F10C] | 2.89 |
| GGYFKARLKDPIDYPYSPPAFRFL [F10D] | 3.29 |
| GGYFKARLKEPIDYPYSPPAFRFL [F10E] | 2.66 |
| GGYFKARLKGPIDYPYSPPAFRFL [F10G] | 2.75 |
| GGYFKARLKHPIDYPYSPPAFRFL [F10H] | 3.49 |
| GGYFKARLKIPIDYPYSPPAFRFL [F10I] | 2.44 |
| GGYFKARLKMPIDYPYSPPAFRFL [F10M] | 2.53 |
| GGYFKARLKNPIDYPYSPPAFRFL [F10N] | 3.08 |
| GGYFKARLKQPIDYPYSPPAFRFL [F10Q] | 1.76 |
| GGYFKARLKRPIDYPYSPPAFRFL [F10R] | 2.94 |
| GGYFKARLKSPIDYPYSPPAFRFL [F10S] | 3.88 |
| GGYFKARLKVPIDYPYSPPAFRFL [F10V] | 2.97 |
| GGYFKARLKWPIDYPYSPPAFRFL [F10W] | 3.49 |

| Variant | protein stability index |
| --- | --- |
| GGYFKARLKYPIDYPYSPPAFRFL [F10Y] | 2.87 |
| GGYFKARLKFAIDYPYSPPAFRFL [P11A] | 2.77 |
| GGYFKARLKFCIDYPYSPPAFRFL [P11C] | 3.95 |
| GGYFKARLKFDIDYPYSPPAFRFL [P11D] | 2.06 |
| GGYFKARLKFEIDYPYSPPAFRFL [P11E] | 2.75 |
| GGYFKARLKFGIDYPYSPPAFRFL [P11G] | 2.07 |
| GGYFKARLKFIIDYPYSPPAFRFL [P11I] | 2.84 |
| GGYFKARLKFKIDYPYSPPAFRFL [P11K] | 2.13 |
| GGYFKARLKFLIDYPYSPPAFRFL [P11L] | 4.07 |
| GGYFKARLKFMIDYPYSPPAFRFL [P11M] | 3.98 |
| GGYFKARLKFNIDYPYSPPAFRFL [P11N] | 3.45 |
| GGYFKARLKFRIDYPYSPPAFRFL [P11R] | 2.99 |
| GGYFKARLKFSIDYPYSPPAFRFL [P11S] | 3.37 |
| GGYFKARLKFTIDYPYSPPAFRFL [P11T] | 2.28 |
| GGYFKARLKFWIDYPYSPPAFRFL [P11W] | 2.87 |
| GGYFKARLKFYIDYPYSPPAFRFL [P11Y] | 3.2 |
| GGYFKARLKFPCDYPYSPPAFRFL [I12C] | 2.64 |
| GGYFKARLKFPEDYPYSPPAFRFL [I12E] | 2.83 |
| GGYFKARLKFPFDYPYSPPAFRFL [I12F] | 3.1 |
| GGYFKARLKFPGDYPYSPPAFRFL [I12G] | 3.83 |
| GGYFKARLKFPKDYPYSPPAFRFL [I12K] | 2.61 |
| GGYFKARLKFPLDYPYSPPAFRFL [I12L] | 2.49 |
